Measurements taken from patent US20160289270A1, “Methods, Peptides and Antibodies for Preventing, Treating and Diagnosing an Inflammatory Condition” (WESTFAELISCHE WILHELMS-UNIVERSITAET MUENSTER, priority 2013, published 2016).

These molecules were tested against T1, his-tagged rhTLR4/MD2 (Homo sapiens, UniProt O00206+Q9Y6Y9) (assay: Immunoprecipitation on TLR4/MD2-coupled beads, eluates analysed by MALDI-TOF mass spectrometry). Conditions: beads with TLR4/MD2, 3 h at 4° C., 1 mM Calcium, elution with 10 mM TRIS/2 mM EDTA.
T1 construct: purchased R&D SYSTEMS
Format: binding
Procedure: Anti-His antibody (5 μL, 0.5 mg/mL, Invivogen) and his-tagged rhTLR4/MD2 (5 μL, 1 mg/mL, carrier free, R&D SYSTEMS) were mixed and coupled to Protein A/G Agarose ([…], Thermo Scientific). Trypsin digested peptides of S100A9 were added for 3 h at 4° C. in the presence of 1 mM Calcium. After washing of the beads in HBS/1 mM Ca-buffer for three times bound peptidic fragments were eluted by addition of 10 mM TRIS/2 mM EDTA-buffer and analysed by ESI and MALDI-TOF-mass spectrometry. Identical experiments were performed to analyze the binding of the chemical synthesized peptides of S100A9 (aa63-79), S100A8 (aa55-71) and the corresponding control peptides aa63-79 A5 and aa55-71 A3.

T1 sequence (O00206 24-631 limits assumed): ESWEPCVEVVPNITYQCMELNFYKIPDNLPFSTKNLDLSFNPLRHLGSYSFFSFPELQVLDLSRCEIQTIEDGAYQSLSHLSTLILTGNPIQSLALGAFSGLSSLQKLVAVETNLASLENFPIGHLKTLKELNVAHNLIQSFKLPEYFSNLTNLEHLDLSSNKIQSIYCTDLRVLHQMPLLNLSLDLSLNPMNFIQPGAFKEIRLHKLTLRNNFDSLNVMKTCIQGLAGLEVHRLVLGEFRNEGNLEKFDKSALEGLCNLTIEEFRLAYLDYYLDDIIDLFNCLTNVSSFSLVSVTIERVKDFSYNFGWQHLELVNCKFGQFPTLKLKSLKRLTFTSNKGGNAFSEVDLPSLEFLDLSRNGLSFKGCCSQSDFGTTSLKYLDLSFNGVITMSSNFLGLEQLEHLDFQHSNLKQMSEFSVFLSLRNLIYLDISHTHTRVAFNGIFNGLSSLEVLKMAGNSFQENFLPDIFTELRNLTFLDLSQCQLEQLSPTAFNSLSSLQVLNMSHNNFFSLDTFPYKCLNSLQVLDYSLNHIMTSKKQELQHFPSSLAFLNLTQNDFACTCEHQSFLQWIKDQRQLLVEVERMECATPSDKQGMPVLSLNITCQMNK
T1 sequence (Q9Y6Y9 17-160 limits assumed): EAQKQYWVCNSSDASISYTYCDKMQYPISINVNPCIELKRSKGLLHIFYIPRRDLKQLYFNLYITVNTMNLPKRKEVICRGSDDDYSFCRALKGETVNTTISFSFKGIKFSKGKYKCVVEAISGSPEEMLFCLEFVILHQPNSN

Row | Molecule | binding to TLR4/MD2 (peptide detected in eluate by MALDI-TOF mass spectrometry)
1 | 63-79 A5: control peptide, S100A9 positions 63-79 with E64A, D65A, Q73A, E77A and K72A exchanged to alanine (MAALDTNADAALSFAEF) [reference compound] | no binding could be detected
2 | No. 15: tryptic fragment of human S100A9, amino acid sequence from positions 73 to 85, portion of the C-terminal EF Hand (QLSFEEFIMLMAR; UniProt P06702 73-85, looked up, fragment) | specific interaction with TLR4/MD2
3 | 55-71: synthetic peptide, positions 55-71 of human S100A8, complete C-terminal EF hand, FKELDINTDGAVNFQEF | able to bind to TLR4/MD2
4 | 63-79: synthetic peptide, amino acid positions 63-79 of S100A9, complete C-terminal EF hand, MEDLDTNADKQLSFEEF | able to bind to TLR4/MD2

Each molecule was assayed against TLR4/MD2 (Homo sapiens, UniProt O00206+Q9Y6Y9) (assay: Modified S100A9-ELISA: binding of S100A9-wt and mutant proteins to plate-coupled TLR4/MD2). Conditions: 2 μg/ml protein, two hours at room temperature, absorbance at 450 nm, FIG. 4B/4C.
Procedure: Binding of S100A9 proteins to TLR4/MD2 was analysed by a modified S100A9-ELISA. Briefly, TLR4/MD2 was coupled to the wells of a 96-well plate and served as capturing molecule. After blocking of the unspecific binding sites by PBS/5% skim milk powder plates were washed three times. S100A9-wt or mutant S100A9 proteins were added at a concentration of 2 μg/ml each in the presence and absence of 100 μM Calcium and incubated for two hours at room temperature. Unbound S100A9 was removed by washing the plates for three times followed by the addition of a primary anti-S100A9-antibody (1 μg/ml, polyclonal, rabbit). After a washing step the secondary anti-rabbit-IgG-antibody coupled to HRP (1 μg/ml from Cell Signalling) was added. TMB was used as substrate for HRP to quantify binding by absorbance readings at 450 nm in an ELISA reader (Anthos Mikrosysteme).

Sequence of TLR4/MD2 (O00206 24-631 limits assumed): as the sequence (O00206 24-631 limits assumed) above
Sequence of TLR4/MD2 (Q9Y6Y9 17-160 limits assumed): as the sequence (Q9Y6Y9 17-160 limits assumed) above

Row | Molecule | binding to the receptor TLR4/MD2 compared to non-mutated protein (S100A9 wt)
5 | S100A9E64A: purified recombinant S100A9 mutant, alanine instead of E64 (protein) MTCKMSQLERNIETIINTFHQYSVKLGHPDTLNQGEFKELVRKDLQNFLKKENKNEKVIEHIMADLDTNADKQLSFEEFIMLMARLTWASHEKMHEGDEGPGHHHKPGLGEGTP | weaker binding
6 | S100A9D65A: purified recombinant S100A9 mutant, alanine instead of D65 (protein) MTCKMSQLERNIETIINTFHQYSVKLGHPDTLNQGEFKELVRKDLQNFLKKENKNEKVIEHIMEALDTNADKQLSFEEFIMLMARLTWASHEKMHEGDEGPGHHHKPGLGEGTP | weaker binding
7 | S100A9Q73A: purified recombinant S100A9 mutant, alanine instead of Q73 (protein) MTCKMSQLERNIETIINTFHQYSVKLGHPDTLNQGEFKELVRKDLQNFLKKENKNEKVIEHIMEDLDTNADKALSFEEFIMLMARLTWASHEKMHEGDEGPGHHHKPGLGEGTP | weaker binding
8 | S100A9E77A: purified recombinant S100A9 mutant, alanine instead of E77 (protein) MTCKMSQLERNIETIINTFHQYSVKLGHPDTLNQGEFKELVRKDLQNFLKKENKNEKVIEHIMEDLDTNADKQLSFAEFIMLMARLTWASHEKMHEGDEGPGHHHKPGLGEGTP | weaker binding
9 | S100A9K72A: purified recombinant S100A9 mutant, alanine instead of K72 (protein) MTCKMSQLERNIETIINTFHQYSVKLGHPDTLNQGEFKELVRKDLQNFLKKENKNEKVIEHIMEDLDTNADAQLSFEEFIMLMARLTWASHEKMHEGDEGPGHHHKPGLGEGTP | not significantly different
10 | S100A9R85A: purified recombinant S100A9 mutant, alanine instead of R85 (protein) MTCKMSQLERNIETIINTFHQYSVKLGHPDTLNQGEFKELVRKDLQNFLKKENKNEKVIEHIMEDLDTNADKQLSFEEFIMLMAALTWASHEKMHEGDEGPGHHHKPGLGEGTP | not significantly different
